These sequences were tested on Escherichia coli TOP10 (assay: shrunken log2 fold change of peptide-encoding DNA abundance (4.5 h post-induction vs induction); higher = less antimicrobial activity (less host growth inhibition)). Settings: time post-induction: 4.5 h; library: site-saturation at positions 5, 18, 19, 20.
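Also: peptides expressed intracellularly from a pBAD plasmid library in pooled LB shake-flask culture, induced with 0.3% L-arabinose, DNA abundance read by NGS, three biological replicates, DESeq2 with apeglm shrinkage.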

Row | Sequence | shrunken log2 fold change
1 | RRIRVRPPRLPRPRPRPSSYPRP | -0.139
2 | RRIRCRPPRLPRPRPRPFCPPRP | -0.225
3 | RRIRSRPPRLPRPRPRPGKSPRP | -0.0274
4 | RRIRVRPPRLPRPRPRPMSLPRP | 0.0447
5 | RRIRWRPPRLPRPRPRPQVSPRP | -0.0705
6 | RRIRSRPPRLPRPRPRPFVEPRP | -0.123
7 | RRIRYRPPRLPRPRPRPANFPRP | 0.0515
8 | RRIRGRPPRLPRPRPRPYWDPRP | -0.26
9 | RRIRIRPPRLPRPRPRPEGPPRP | -0.0796
10 | RRIRIRPPRLPRPRPRPSFNPRP | -0.838
11 | RRIRCRPPRLPRPRPRPNKEPRP | -0.189
12 | RRIRVRPPRLPRPRPRPVWNPRP | 0.152
13 | RRIRFRPPRLPRPRPRPCVWPRP | 0.0426
14 | RRIRIRPPRLPRPRPRPLVWPRP | 0.0428
15 | RRIRQRPPRLPRPRPRPESCPRP | -0.0209
16 | RRIRFRPPRLPRPRPRPPLSPRP | 0.133
17 | RRIRKRPPRLPRPRPRPWCMPRP | 0.183
18 | RRIRCRPPRLPRPRPRPNYVPRP | -0.304
19 | RRIRHRPPRLPRPRPRPKYPPRP | 0.0718
20 | RRIRMRPPRLPRPRPRPDYSPRP | -0.0167
21 | RRIRGRPPRLPRPRPRPCDEPRP | 0.566
22 | RRIRMRPPRLPRPRPRPTDDPRP | 0.637
23 | RRIRMRPPRLPRPRPRPCDLPRP | 0.041

Row | Sequence | shrunken log2 fold change
24 | RRIRHRPPRLPRPRPRPSIWPRP | -0.244
25 | RRIRDRPPRLPRPRPRPQYYPRP | 0.003
26 | RRIRWRPPRLPRPRPRPVESPRP | 0.0647
27 | RRIRQRPPRLPRPRPRPGEDPRP | -0.0999
28 | RRIRLRPPRLPRPRPRPTRIPRP | -0.141
29 | RRIRKRPPRLPRPRPRPYESPRP | 0.0419
30 | RRIRGRPPRLPRPRPRPRVHPRP | 0.666
31 | RRIRMRPPRLPRPRPRPIFHPRP | -0.00123
32 | RRIRNRPPRLPRPRPRPEYKPRP | -0.203
33 | RRIRPRPPRLPRPRPRPTMVPRP | -0.0466
34 | RRIRSRPPRLPRPRPRPQPCPRP | 2.29
35 | RRIRFRPPRLPRPRPRPQQKPRP | 0.0925
36 | RRIRGRPPRLPRPRPRPNSSPRP | -0.00499
37 | RRIRLRPPRLPRPRPRPVANPRP | -0.0731
38 | RRIRYRPPRLPRPRPRPFLRPRP | -0.308
39 | RRIRFRPPRLPRPRPRPYFTPRP | -1.09
40 | RRIRTRPPRLPRPRPRPWMLPRP | -0.0281
41 | RRIRERPPRLPRPRPRPAAVPRP | 0.057
42 | RRIRTRPPRLPRPRPRPLWVPRP | 0.0735
43 | RRIRYRPPRLPRPRPRPANAPRP | 0.00281
44 | RRIRVRPPRLPRPRPRPKNEPRP | 0.00832
45 | RRIRERPPRLPRPRPRPEYKPRP | -0.471
46 | RRIRFRPPRLPRPRPRPTRGPRP | 0.54

Row | Sequence | shrunken log2 fold change
47 | RRIRARPPRLPRPRPRPQSCPRP | -0.0161
48 | RRIRLRPPRLPRPRPRPHCEPRP | -0.00711
49 | RRIRRRPPRLPRPRPRPGSMPRP | -0.387
50 | RRIRLRPPRLPRPRPRPGLEPRP | 0.11
51 | RRIRARPPRLPRPRPRPSHRPRP | 0.0188
52 | RRIRGRPPRLPRPRPRPEVQPRP | 1.71
53 | RRIRHRPPRLPRPRPRPHSHPRP | -0.41
54 | RRIRERPPRLPRPRPRPTMIPRP | -0.597
55 | RRIRPRPPRLPRPRPRPSHFPRP | -0.399
56 | RRIRSRPPRLPRPRPRPLVKPRP | -0.111
57 | RRIRPRPPRLPRPRPRPWETPRP | 0.124
58 | RRIRRRPPRLPRPRPRPEYPPRP | -0.137
59 | RRIRIRPPRLPRPRPRPVTVPRP | 0.129
60 | RRIRSRPPRLPRPRPRPLCPPRP | -0.0602
61 | RRIRLRPPRLPRPRPRPYHIPRP | -0.713
62 | RRIRFRPPRLPRPRPRPLIVPRP | -0.473
63 | RRIRIRPPRLPRPRPRPWSSPRP | -0.1
64 | RRIRLRPPRLPRPRPRPKSFPRP | -0.0686
65 | RRIRIRPPRLPRPRPRPISVPRP | 0.0153
66 | RRIRVRPPRLPRPRPRPKCRPRP | 0.224
67 | RRIRPRPPRLPRPRPRPCIWPRP | -0.109
68 | RRIRQRPPRLPRPRPRPETTPRP | 0.0178
69 | RRIRCRPPRLPRPRPRPPFVPRP | 0.145

Row | Sequence | shrunken log2 fold change
70 | RRIRIRPPRLPRPRPRPKMLPRP | 0.154
71 | RRIRYRPPRLPRPRPRPNCWPRP | -0.36
72 | RRIRTRPPRLPRPRPRPGIIPRP | 0.0136
73 | RRIRVRPPRLPRPRPRPRAEPRP | 0.677
74 | RRIRSRPPRLPRPRPRPGMMPRP | 0.227
75 | RRIRSRPPRLPRPRPRPEWNPRP | 0.119
76 | RRIRSRPPRLPRPRPRPRCIPRP | -0.155
77 | RRIRCRPPRLPRPRPRPCKCPRP | -0.0236
78 | RRIRYRPPRLPRPRPRPRWPPRP | 0.498
79 | RRIRWRPPRLPRPRPRPANFPRP | 0.106
80 | RRIRTRPPRLPRPRPRPDMMPRP | -0.182
81 | RRIRLRPPRLPRPRPRPWCQPRP | -0.0199
82 | RRIRERPPRLPRPRPRPCAWPRP | -0.0536
83 | RRIRYRPPRLPRPRPRPTALPRP | -0.0277
84 | RRIRVRPPRLPRPRPRPSQQPRP | -0.116
85 | RRIRPRPPRLPRPRPRPEMCPRP | 0.291
86 | RRIRRRPPRLPRPRPRPDLGPRP | 0.104
87 | RRIRCRPPRLPRPRPRPKDTPRP | 0.382
88 | RRIRMRPPRLPRPRPRPGRDPRP | 1.4
89 | RRIRCRPPRLPRPRPRPQPVPRP | 0.399
90 | RRIRQRPPRLPRPRPRPRLNPRP | -0.111
91 | RRIRARPPRLPRPRPRPTCRPRP | 0.592

Source: the supplement of paper PMC9112550, “Optimization of the antimicrobial peptide Bac7 by deep mutational scanning” (BMC Biology, 2022)
